Assay [1] has as its target T1, FcγRIa extracellular domain with C-terminal His tag (human, UniProt P12314 16-292).
T1 construct: extracellular domain; Expressed in FreeStyle293 cells; analyte in the SPR assay; also called FcgRI; 1a
Nature of the assay: SPR (Biacore), relative binding, HeCon Ab = 100. (In general: Surface plasmon resonance follows binding to a sensor surface in real time, without labels.)

Assay [2] concerns the target T2, FcγRIIb extracellular domain with C-terminal His tag (human, UniProt P31994 43-217).
T2 construct: extracellular domain; Expressed in FreeStyle293 cells; analyte in the SPR assay; also called FcgRIIb; 2b
T2 sequence (looked up): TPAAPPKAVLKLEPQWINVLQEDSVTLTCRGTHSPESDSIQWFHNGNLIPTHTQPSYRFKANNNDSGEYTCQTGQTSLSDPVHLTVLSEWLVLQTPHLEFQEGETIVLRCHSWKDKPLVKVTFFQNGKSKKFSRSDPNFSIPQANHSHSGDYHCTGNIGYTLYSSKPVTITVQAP
Nature of the assay: SPR (Biacore), relative binding, HeCon Ab = 100.

In a further assay the target is T3, FcγRIa (human, UniProt P12314 16-292).
T3 construct: extracellular domain; Soluble extracellular domain expressed in FreeStyle293 cells, used as analyte in Biacore; also called FcgRI; 1a; not shown: His tag attached to the C terminus
Kind of assay: SPR (Biacore); He Ab vs HeCon Ab GpH7-A5/GpH7-B3/GpL16-k0. The method, boiled down:
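Antibodies were captured on antigen-peptide chips (amine-coupled to CM5, or biotinylated peptide on SA), then FcγR diluted in HBS-EP+ running buffer was injected as analyte at 25° C. Chips were regenerated with 10 mM glycine-HCl, pH 1.5 between cycles.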

Another assay addresses T4, FcγRIIb (human, UniProt P31994 43-217).
T4 construct: extracellular domain; also called FcgRIIb; 2b
T4 sequence (looked up): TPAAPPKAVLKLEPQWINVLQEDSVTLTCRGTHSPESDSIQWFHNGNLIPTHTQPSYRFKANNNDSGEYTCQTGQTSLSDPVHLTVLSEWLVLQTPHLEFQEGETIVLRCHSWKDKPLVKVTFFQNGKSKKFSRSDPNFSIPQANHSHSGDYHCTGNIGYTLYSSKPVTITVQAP
Nature of the assay: SPR (Biacore), relative binding.

We go through 9 molecules from patent US20150344570A1 (published 2015).

T1 sequence (P12314 16-292): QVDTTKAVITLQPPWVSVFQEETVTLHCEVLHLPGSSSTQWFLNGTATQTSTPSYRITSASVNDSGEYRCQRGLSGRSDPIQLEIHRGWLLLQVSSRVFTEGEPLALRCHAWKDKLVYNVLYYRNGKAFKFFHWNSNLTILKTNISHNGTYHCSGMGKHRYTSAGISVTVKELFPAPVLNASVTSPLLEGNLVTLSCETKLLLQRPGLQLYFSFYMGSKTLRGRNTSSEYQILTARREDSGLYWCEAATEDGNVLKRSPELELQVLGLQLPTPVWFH
T3 sequence (P12314 16-292): as above

B1: GpH7-A5/GpH7-B3 variant E269_06M/GpL16-k0 (He Ab) (antibody, human IgG1, kappa)
heavy 1: not shown
heavy 2: not shown
light: DIVMTQSPLSLPVTPGEPASISCQASESLVHSNRNTYLHWYLQKPGQSPQLLIYKVSNRFSGVPDRFSGSGSGTDFTLKISRVEAEDVGVYYCSQNTHVPPTFGQGTKVEIERTVAAPSVFIFPPSDEQLKSGTASVVCLLNNFYPREAKVQWKVDNALQSGNSQESVTEQDSKDSTYSLSSTLTLSKADYEKHKVYACEVTHQGLSSPVTKSFNRGEC
notes: He Ab: mutation in one H chain only
In the case of B1, the He/Con_1a in assay [1] was 104 % of HeCon Ab (=100). Also, in assay [2], the He/Con_2b is 46.7 % of HeCon Ab (=100).

B2: GpH7-A5/GpH7-B3 variant E269_05P/GpL16-k0 (He Ab) (antibody, human IgG1, kappa)
heavy 1: not shown
heavy 2: not shown
light: DIVMTQSPLSLPVTPGEPASISCQASESLVHSNRNTYLHWYLQKPGQSPQLLIYKVSNRFSGVPDRFSGSGSGTDFTLKISRVEAEDVGVYYCSQNTHVPPTFGQGTKVEIERTVAAPSVFIFPPSDEQLKSGTASVVCLLNNFYPREAKVQWKVDNALQSGNSQESVTEQDSKDSTYSLSSTLTLSKADYEKHKVYACEVTHQGLSSPVTKSFNRGEC
notes: as for B1
Take B2: the He/Con_1a in assay [1] was 102 % of HeCon Ab (=100). The He/Con_2b in assay [2] was 52.6 % of HeCon Ab (=100).

B3: GpH7-A5/GpH7-B3 variant E269_13S/GpL16-k0 (He Ab) (antibody, human IgG1, kappa)
heavy 1: not shown
heavy 2: not shown
light: DIVMTQSPLSLPVTPGEPASISCQASESLVHSNRNTYLHWYLQKPGQSPQLLIYKVSNRFSGVPDRFSGSGSGTDFTLKISRVEAEDVGVYYCSQNTHVPPTFGQGTKVEIERTVAAPSVFIFPPSDEQLKSGTASVVCLLNNFYPREAKVQWKVDNALQSGNSQESVTEQDSKDSTYSLSSTLTLSKADYEKHKVYACEVTHQGLSSPVTKSFNRGEC
notes: as for B1
Consider B3, for which the He/Con_1a in assay [1] is 103 % of HeCon Ab (=100). For the same molecule, the He/Con_2b in assay [2] is 47.8 % of HeCon Ab (=100).

B4: GpH7-A5/GpH7-B3 variant D265_10E/GpL16-k0 (He Ab) (antibody, human IgG1, kappa)
heavy 1: not shown
heavy 2: not shown
light: DIVMTQSPLSLPVTPGEPASISCQASESLVHSNRNTYLHWYLQKPGQSPQLLIYKVSNRFSGVPDRFSGSGSGTDFTLKISRVEAEDVGVYYCSQNTHVPPTFGQGTKVEIERTVAAPSVFIFPPSDEQLKSGTASVVCLLNNFYPREAKVQWKVDNALQSGNSQESVTEQDSKDSTYSLSSTLTLSKADYEKHKVYACEVTHQGLSSPVTKSFNRGEC
notes: as for B1
For the molecule B4, in assay [1], the He/Con_1a is 101 % of HeCon Ab (=100). The He/Con_2b in assay [2] was 38.2 % of HeCon Ab (=100).

B5: GpH7-A5/GpH7-B3 variant E269_14T/GpL16-k0 (He Ab) (antibody, human IgG1, kappa)
heavy 1: not shown
heavy 2: not shown
light: DIVMTQSPLSLPVTPGEPASISCQASESLVHSNRNTYLHWYLQKPGQSPQLLIYKVSNRFSGVPDRFSGSGSGTDFTLKISRVEAEDVGVYYCSQNTHVPPTFGQGTKVEIERTVAAPSVFIFPPSDEQLKSGTASVVCLLNNFYPREAKVQWKVDNALQSGNSQESVTEQDSKDSTYSLSSTLTLSKADYEKHKVYACEVTHQGLSSPVTKSFNRGEC
notes: as for B1
B5: in assay [1], the He/Con_1a is 106 % of HeCon Ab (=100). For the same molecule, the He/Con_2b in assay [2] was 50.6 % of HeCon Ab (=100).

B6: GpH7-A5/GpH7-B3 variant Y300_12R/GpL16-k0 (antibody, human IgG1, kappa)
heavy 1: not shown
heavy 2: not shown
light: DIVMTQSPLSLPVTPGEPASISCQASESLVHSNRNTYLHWYLQKPGQSPQLLIYKVSNRFSGVPDRFSGSGSGTDFTLKISRVEAEDVGVYYCSQNTHVPPTFGQGTKVEIERTVAAPSVFIFPPSDEQLKSGTASVVCLLNNFYPREAKVQWKVDNALQSGNSQESVTEQDSKDSTYSLSSTLTLSKADYEKHKVYACEVTHQGLSSPVTKSFNRGEC
notes: also called He Ab Y300_12R
Regarding B6, in the assay with FcγRIa, the He/Con_1a was 105 relative binding, control = 100.

B7: GpH7-A5/GpH7-B3 variant V266_20W/GpL16-k0 (antibody, human IgG1, kappa)
heavy 1: not shown
heavy 2: not shown
light: DIVMTQSPLSLPVTPGEPASISCQASESLVHSNRNTYLHWYLQKPGQSPQLLIYKVSNRFSGVPDRFSGSGSGTDFTLKISRVEAEDVGVYYCSQNTHVPPTFGQGTKVEIERTVAAPSVFIFPPSDEQLKSGTASVVCLLNNFYPREAKVQWKVDNALQSGNSQESVTEQDSKDSTYSLSSTLTLSKADYEKHKVYACEVTHQGLSSPVTKSFNRGEC
notes: mutation in the GpH7-B3 chain only; also called He Ab
As for B7, the He/Con_2b in the assay with FcγRIIb was 71.9 % of GpH7-A5/GpH7-B3/GpL16-k0.

B8: GpH7-A5/GpH7-B3 variant D265_02A/GpL16-k0 (antibody, human IgG1, kappa)
heavy 1: not shown
heavy 2: not shown
light: DIVMTQSPLSLPVTPGEPASISCQASESLVHSNRNTYLHWYLQKPGQSPQLLIYKVSNRFSGVPDRFSGSGSGTDFTLKISRVEAEDVGVYYCSQNTHVPPTFGQGTKVEIERTVAAPSVFIFPPSDEQLKSGTASVVCLLNNFYPREAKVQWKVDNALQSGNSQESVTEQDSKDSTYSLSSTLTLSKADYEKHKVYACEVTHQGLSSPVTKSFNRGEC
notes: as for B7
In the case of B8, the He/Con_2b in the assay with FcγRIIb was 19.9 % of GpH7-A5/GpH7-B3/GpL16-k0.

B9: GpH7-A5/GpH7-B3 variant E269_04F/GpL16-k0 (He Ab) (antibody, human IgG1, kappa)
heavy 1: not shown
heavy 2: not shown
light: DIVMTQSPLSLPVTPGEPASISCQASESLVHSNRNTYLHWYLQKPGQSPQLLIYKVSNRFSGVPDRFSGSGSGTDFTLKISRVEAEDVGVYYCSQNTHVPPTFGQGTKVEIERTVAAPSVFIFPPSDEQLKSGTASVVCLLNNFYPREAKVQWKVDNALQSGNSQESVTEQDSKDSTYSLSSTLTLSKADYEKHKVYACEVTHQGLSSPVTKSFNRGEC
notes: as for B1
Regarding B9, the He/Con_1a in assay [1] is 103 % of HeCon Ab (=100). The He/Con_2b in assay [2] is 45 % of HeCon Ab (=100).
